Laboratory results: paper PMC6688928

Experiments:
[1] = molecular target: FLAG-NaVAb KAV/E96C/Q150C (Hi5 cells, crosslinking assay) (UniProt A8EVM5); assay: cross-linking
[2] = molecular target: FLAG-NaVAb V100C/Q150C (Hi5 cells, crosslinking assay) (UniProt A8EVM5); assay: cross-linking
[3] = molecular target: FLAG-NaVAb G94C/Q150C (Hi5 cells, crosslinking assay) (UniProt A8EVM5); assay: cross-linking
[4] = molecular target: MBP-NaVAb/KAV/G94C/Q150C, disulfide-crosslinked (UniProt A8EVM5); assay: cryo-EM structure
[5] = molecular target: MBP-NaVAb/KAV/G94C/Q150C, disulfide-crosslinked (UniProt A8EVM5); assay: cross-linking
[6] = molecular target: NaVAb/V100C/Q150C Δ28, disulfide-crosslinked; assay: cross-linking
[7] = molecular target: FLAG-NaVAb KAV/G94C/Q150C (Hi5 cells, crosslinking assay) (UniProt A8EVM5); assay: cross-linking
[8] = molecular target: FLAG-NaVAb E96C/Q150C (Hi5 cells, crosslinking assay) (UniProt A8EVM5); assay: cross-linking

FLAG-NaVAb KAV/E96C/Q150C (Hi5 cells, crosslinking assay) (from UniProt A8EVM5 1-267) (natural protein)
percent crosslinked in tetramers [1]: 80% | stoichiometry N [1]: 4

FLAG-NaVAb V100C/Q150C (Hi5 cells, crosslinking assay) (from UniProt A8EVM5 1-267) (natural protein)
percent formation of disulfide-crosslinked tetramers [2]: 80% | stoichiometry N [2]: 4

FLAG-NaVAb G94C/Q150C (Hi5 cells, crosslinking assay) (from UniProt A8EVM5 1-267) (natural protein)
percent formation of disulfide-crosslinked tetramers [3]: 20% | stoichiometry N [3]: 4

MBP-NaVAb/KAV/G94C/Q150C, disulfide-crosslinked (from UniProt A8EVM5 5-267) (natural protein)
stoichiometry N [4]: 4 | stoichiometry N [5]: 4

NaVAb/V100C/Q150C Δ28, disulfide-crosslinked (domain or fragment)
stoichiometry N [6]: 4

FLAG-NaVAb KAV/G94C/Q150C (Hi5 cells, crosslinking assay) (from UniProt A8EVM5 1-267) (natural protein)
percent crosslinked in tetramers [7]: 80% | stoichiometry N [7]: 4

FLAG-NaVAb E96C/Q150C (Hi5 cells, crosslinking assay) (from UniProt A8EVM5 1-267) (natural protein)
percent formation of disulfide-crosslinked tetramers [8]: 40% | stoichiometry N [8]: 4
